Assay: soluble on expression in E. coli; label from the status in PepcDB or PDB records
With “MADSSSFFSSAFSSAKNLIPFAKNTEDKPVDADTASDAKDAKDSAIQEAVQNASAAINDVFTDAVDKLEEVKDTVVEQFSNGDEKKEEAVVEEKFDSVHVGVDGETAVQEAKEEVKEAQVVVKGVLADGTQIVEGVTDVAEAPVADEKKEETVAAPLDSAAPVEEHKEESHSSEHTEAPAHTEDSIVQADPEARIVFQGVLADGTQIIEAVSANPPCIQEESAPAAAVSEEVGEAVHVVPVDQAPEAPTSEAQDAAPIEEHVEVVHVAENASTPAATDAHEETKSAEEQTPVVDASPAQEIVKVEEHEHKEEAAPDESAPEAAHDSHVEETAAQVVDEVIEAVHVSANESAPEEHKEEVAAAATSEDQKEPAPASDEHTSESAVEGAIESVHIALTESAPVASDENTTEAAPGTVEEHKNEVHDPVDGASSDAPAEDHREAAASSESVEEPITAVHVEATESAAPADKVHEETKIDSAAETHADAPVVDASPAEDQASEVTEAPHVESAKSAPATSEDHKEDVAQATSEQVETQAPADEHKDDASPAEPTTVQDVIEAIPIVSTESTPAEHSAPAESAPALAEEHKDEAAPSEPVQDVPVEEVIEAVHIAPAESAPASVEEAAPSESTQAPVEEHKDATTAADSSHEEPKAESDAPAAESVETAPVEEHKDEASPTALESVEDVIEAVHVASTESAPAPVEDAASADSTQAPVEEQKDTAAAAEPSHEEAQADHAASVEDVIEAVHIASNESAPTTEAAPSESIQAEDHKDEAASTAEPAHEESVTVVEASHKEPQAESAAPVEENIESVHVASEESAPAPSGDAAPSESAPVSENPVEEVAVAYHVESIESVPTDAQSVEEPVVQQHVGTVEAAPEAAVDEESFDVVHVHSDAAHPETATPESGSEETFEKVEHSQVQEAPSSEEHNSSEPEIVEDVVEKQIVAAVASAPETQPEESPKKPRKLAEMAHESAFPVPYRSKLVEPFEPGQTLIVKGKTGEDSIRFTVNLHTNTADFSGNDVPLHVSVRFDEGKLVFNTFSKGEWGKEERKSNPYKKGDDIDIRIRAHDSKFQIFVDQKEVKEYEHRVPLSSITHFTIDGDVLVNYIHWGGKYYPVPYESGLAGEGLAPGKTLTVFGIPEKKAKRFHINLLKKNGDIALHLNARFDEKHVVRNSLINSAWGNEEREGKMPFEKAVGFDLEIHNEPYAFAVTVNGERFASYAHRLSPDEVNGLQIGGDVEITGIQLA” the “soluble on expression in E. coli” value was “not soluble”.
In the case of “MADSSSSSFFPDFGLLLYLEELNKEELNTFKLFLKETMEPEHGLTPWNEVKKARREDLANLMKKYYPGEKAWSVSLKIFGKMNLKDLCERAKEEINWSAQTIGPDDAKAGETQEDQEAVLGDGTEYRNRIKEKFCITWDKKSLAGKPEDFHHGIAEKDRKLLEHLFDVDVKTGAQPQIVVLQGAAGVGKTTLVRKAMLDWAEGSLYQQRFKYVFYLNGREINQLKERSFAQLISKDWPSTEGPIEEIMYQPSSLLFIIDSFDELNFAFEEPEFALCEDWTQEHPVSFLMSSLLRKVMLPEASLLVTTRLTTSKRLKQLLKNHHYVELLGMSEDAREEYIYQFFEDKRWAMKVFSSLKSNEMLFSMCQVPLVCWAACTCLKQQMEKGGDVTLTCQTTTALFTCYISSLFTPVDGGSPSLPNQAQLRRLCQVAAKGIWTMTYVFYRENLRRLGLTQSDVSSFMDSNIIQKDAEYENCYVFTHLHVQEFFAAMFYMLKGSWEAGNPSCQPFEDLKSLLQSTSYKDPHLTQMKCFLFGLLNEDRVKQLERTFNCKMSLKIKSKLLQCMEVLGNSDYSPSQLGFLELFHCLYETQDKAFISQAMRCFPKVAINICEKIHLLVSSFCLKHCRCLRTIRLSVTVVFEKKILKTSLPTNTWLKFITFPDGCQDISTSLIHNKNLMHLDLKGSDIGDNGVKSLCEALKHPECKLQTLRLESCNLTVFCCLNISNALIRSQSLIFLNLSTNNLLDDGVQLLCEALRHPKCYLERLSLESCGLTEAGCEYLSLALISNKRLTHLCLADNVLGDGGVKLMSDALQHAQCTLKSLVLRRCHFTSLSSEYLSTSLLHNKSLTHLDLGSNWLQDNGVKLLCDVFRHPSCNLQDLELMGCVLTNACCLDLASVILNNPNLRSLDLGNNDLQDDGVKILCDALRYPNCNIQRLGLEYCGLTSLCCQDLSSALICNKRLIKMNLTQNTLGYEGIVKLYKVLKSPKCKLQVLGQQDFQAAQGKLQQRRPLKPLRPGQVNRKLKTEKETQNCRLSRRRIGPLETADQSQAAGARPAAGLRLRFRGLGD”, the “soluble on expression in E. coli” value is reported as “soluble”.
With “MADSTATSTPRAVPSHEDRPVYVIGGGPGGLAAAHALRAQGVRAVVLEKSDRVGASWRRHYDRLHLHTTRRLSALPGLPMPRSFGRWVSRDNVVRYLEKYVEHHQLEIVTGVEVSRVEPAPDGTGWLLHATGGRELTGSAVVVATGHNHTPHLPDWPGRDAYTGELLHAGDYRNATPHAGRDVLVVGVGNTGAEIAVDLVEGGASRVRLAVRTAPHIVRRSTAGWAAQFTGIVVRRLPVRLVDLLAGPMARLSVPDLSAQGLPRPDTGLYSRVREGSIPVQDVGLIDAVRKGRVEIVAAVDGFEDGKVVLADGNRIGPDVVIAATGYARALEDLVGHLDVLDGRGRPTVHGARTPRTAPGLYFTGFTNPISGMFRELAIDAEKIAKAVAKALARTTARTPALEHHHHHH” the “soluble on expression in E. coli” value was “soluble”.
In the case of “MADVADPEVESRPQRFPKNIMITGANRGIGFGLVKHFLEYDGIELLIATCRNPEKADELNALKNDRRLHVIALNVDDDESIKKVFDEVSSLVSSNGLNMLINNAGILLPYEVDGPKICRKTMMKQLETNSVSVAILTQIFLPLIKTAASAAEGDEASIDRASIINISSTMASIEMNNGCFDGPMTAYRMSKSALNAFARQSFMELSKYHILVTSFCPGWVRTDMGGDNADLDVNESTKTLSANILRLDNRNNGLYFDRFLHPIPN”, the “soluble on expression in E. coli” value is reported as “not soluble”.
In the case of “MADVDELEDPMEEMTSYTFARFLRSPETEAFVRNLDRPPQMPAMRFVYLYCLCKQIQEFSGETGFCDFVSSLVQENDSKDGPSLKSIYWGLQEATDEQRTVLCSYVESMTRGQSENLMWDILRNGIISSSKLLSTIKNGPTKVFEPAPISTNHYFGGPVAFGLRCEDTVKDIVCKLICGDASANRQFGFMISPTDGIFGVSLDLCVNVESQGDFILFTDRSCIYEIKCRFKYLFSKSEFDPIYPSYTALYKRPCKRSFIRFINSIARPTVEYVPDGRLPSEGDYLLTQDEAWNLKDVRKRKLGPGHDLVADSLAANRGVESMLYVMTDPSENAGRIGIKDRVPVNIFINPRHNYFYQVLLQYKIVGDYVRHSGGGKPGRDCSPRVNIVTAFFRKRSPLDPATCTLGSDLLLDASVEIPVAVLVTPVVLPDSVIRKTLSTAAGSWKAYADNTFDTAPWVPSGLFADDESTP”, the “soluble on expression in E. coli” value is reported as “soluble”.
In the case of “MADYDLAIIGGGLNGVSLARDAAGRGLRVILFEQGDLGGAASSATPRLIHGDLSVLERRGFWRVRRALAERRIWLRIAPHLVRPMRFVIPAHSEERPPWLLRAGLYVYDGLTNRGGLPPSATLDITHHPVGNALKRPFGTAFEYSDCVVDDSRLVVLTALDAAERGAAIHTGARCVRADRTDTWRLAVVDRGHRRTITARALANATGGWTSMVADTVLREPQPAMAAMQMSQIIVPRLFDSENVYVFQNNDGRLIFARPLERDFTLIGTVTHAFTGDPAIVAMPGADVSYLCEAASRYFRERVAPTDVVRTVSGVNLTLASARGRDGTALFHARRRKAPLITMFGGDVTTSRLRAERAVTRLTPFYPMSPPWTDGAVLPGGDFAWDRFDTEVDLARDRWRFLSEPEAQRLVAAYGSRLPAVLGEARTRDELGPTFGPELTGAEVRYLMSHEWARFPEDVLWRRSKLGLTMPKADRDGLAAFMADVNDRPEPVEQRPIGRLEHHHHHH”, the “soluble on expression in E. coli” value is reported as “not soluble”.
With “MADYIYIDNSNLYIEGRRVSAVQQRLATNINEAMRDGILDHGYTISFGKLHEFLTGGDLTKIKRAALYGSRPPPNDSIWKSAERAGFELHLEDRNVANKEKKIDTGIATLLTKDAYKHGKPEEDLFVLVAGDKDYVPTLNELRADGYQVEVVFWSHAAKELKDAATRFISLDQHLEHLRF” the “soluble on expression in E. coli” value was “soluble”.
For “MAEARSQPSAGPQLNALPDHSPLLQPGLAALRRRAREAGVPLAPLPLTDSFLLRFLRARDFDLDLAWRLLKNYYKWRAECPEISADLHPRSIIGLLKAGYHGVLRSRDPTGSKVLIYRIAHWDPKVFTAYDVFRVSLITSELIVQEVETQRNGIKAIFDLEGWQFSHAFQITPSVAKKIAAVLTDSFPLKVRGIHLINEPVIFHAVFSMIKPFLTEKIKERIHMHGNNYKQSLLQHFPDILPLEYGGEEFSMEDICQEWTNFIMKSEDYLSSISESIQ”, the “soluble on expression in E. coli” value was “soluble”.

From the DeepSol protein solubility set
